Assay results published in the supplement of paper PMC9170038.

System: MS2 coat protein
Assay: apparent KD of MS2 coat protein; higher = weaker reporter binding
Details: Eterna round: R107
Outline: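 Apparent KD per design is the median of normalised cluster binding-curve fits. Designed RNA switches transcribed on-chip from Illumina sequencing clusters were titrated with SNAP-549-labelled MS2 coat protein in twofold steps from 0.7 or 1.5 nM to 3 µM, with 0.8–1.5 h down to 10–20 min per step. Buffer: 100 mM Tris-HCl pH 7.5, 80 mM KCl, 4 mM MgCl2, without or with constant ligand.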

[1] = input ligand: theophylline 20 uM
[2] = input ligand: theophylline 2 mM
[3] = input ligand: tryptophan 2.4 mM

Sequence	apparent KD of MS2 coat protein (input ligand: arginine 13.2 mM)	apparent KD of MS2 coat protein (input ligand: none)	apparent KD of MS2 coat protein [1]	apparent KD of MS2 coat protein [2]	apparent KD of MS2 coat protein [3]
GUCCUAGCGAGCGCUCGCUAGGACGCGGAUACCAGCGAGGUCCAUCGCCCUUGGCAGCCGAACAUGAGGAUCACCCAUGUCGGUA [#1 Same State - Theophylline A Attempt #16 (HarryS)]	8.3 nM	11.6 nM	13.2 nM	13.4 nM	9.97 nM
GUCUGUGACUGAAGGAGCGACAUGAGGAUCACCCAUGUCUCCCGUUAUGGGAGUUCCUUAGGUCAGGUAGGUCGCAGUCACAGAC [#1 Exclusion - Arginine B Attempt #28 (Inspired by Omei)]	71.4 nM	112 nM	137 nM	152 nM	103 nM
GUGGACAUGAGGAUCACCCAUGUAAGUCGGCGAGGACCGGUACGGCCGCCACUCGUGUUCUGUCUCAGCUCAAACGUAGCCGGAA [theeternabot_sameState_MS2_Trp_A_13]	34.2 nM	–	51.8 nM	39.2 nM	–
GUGGAGACCUCGGCCGCCACUCUCCAUGAGGAUCUCCCAUGUAACAUGAGGAUCACCCAUGUGCUGAGGACCGGGAGGUCCUGAA [Same State Tryptophan B GF 19]	15.7 nM	9.47 nM	13.4 nM	11 nM	9.55 nM
GUGUACAUGAGGAUCACCCAUGUCGAGUUACGAGGACCGGUACGGCCGCCACUCGGCGGCUCGACACGGAUAGCGAUGCGUUGCU [#18 Exclusion Tryptophan A]	24.6 nM	–	49.5 nM	44.1 nM	–
GUUAUAUACUCGGCCGCCACUGAGAGAGUCAUGUAAACAUGAGGAUCACCCAUGUAAUAUAUAUACAGGACCGGGAGUAUGGUAA [4.E]	12.1 nM	–	18.6 nM	14 nM	–
GUUAUAUUAAUUGAUACCAGCGAGAAAACAUGAGGAUCACCCAUGUUCGCCCAUGUUAAGCGCCCUUGGCAGCAAUUUUAUUAGC [AstrosExyTheB#2]	32.1 nM	–	44.3 nM	–	37.5 nM
GUUAUGGACCUGGAUACCAGCUGGUACAAGGGCGGUCUACAUGAGGAUCACCCAUGUGUCAGCCCUUGGCAGCCAGCAACCGGCA [Teraus]	9.36 nM	–	12.5 nM	–	8.95 nM
GUUGGACUUUCGGCCGCCACUGAGAGAGUCAUGUGAACAUGAGGAUCACCCAUGUAAUAUAUAUACAGGACCGGGAGGGUUGUAA [4.M]	11.7 nM	–	22 nM	13.9 nM	–
GUUGUAUACUCGGCCGCCACUGAGAGAGUCAUGUGAACAUGAGGAUCACCCAUGUAAUAUAUAUACAGGACCGGGAGUGUGGUAA [4.H]	14.5 nM	16.8 nM	16.5 nM	14.4 nM	15.8 nM
UAAUCAGUGCCGGUUCUCGGAUCCUCAUGUCGAGGACCGGUACGGCCGCCACUCGAAACAUGAGGAUCACCCAUGUAAUAAUAAU [#09 Exclusion Tryptophan A]	44.2 nM	–	116 nM	103 nM	–
UAAUCUGGUCUUCGAUAGGUGAUCCUCAAACGAGGACCGGUACGGCCGCCACUCGAUAACAUGAGGAUCACCCAUGUACGAGUGA [|T'-M'-Trp-Ms2|_Design16b]	52.8 nM	134 nM	155 nM	205 nM	119 nM
UACAUACAUGAGGAUCACCCAUGUUGCGAUACCAGCGAAAGAGACCGCCCUUGGCAGCGCUCAUUUAGUUCCAUUCUUGAUCGAA [theeternabot_sameState_MS2_Theo_A_4]	14.5 nM	–	23.7 nM	–	14.7 nM
UACAUGAGGAUCACCCAUGUCCCAUGUGAACGAGGACCGGUACGGCCGCCACUCGACCGAGGCGGCACAUGAGGAUCACCCGCAU [whbob_SS_trypto A_2s15]	121 nM	–	917 nM	1140 nM	–
UACAUGAGGAUCACCCAUGUGUAGAGGGAUACCAGUGACAGUAAGCACCCUUGGCAGCCCGUGAACAAAGGGUGGGCAAAAUAGU [#16 Exclusion-TheophyllineA]	48.2 nM	39.2 nM	60.3 nM	47.4 nM	33.9 nM
